In experiment [1] the target is T1, PCPE-1 (Procollagen C-proteinase enhancer-1) glycoprotein, human (human, UniProt Q15113 26-449).
T1 construct: mature; Secreted recombinant protein; also called purified human PCPE-1
T1 sequence (looked up): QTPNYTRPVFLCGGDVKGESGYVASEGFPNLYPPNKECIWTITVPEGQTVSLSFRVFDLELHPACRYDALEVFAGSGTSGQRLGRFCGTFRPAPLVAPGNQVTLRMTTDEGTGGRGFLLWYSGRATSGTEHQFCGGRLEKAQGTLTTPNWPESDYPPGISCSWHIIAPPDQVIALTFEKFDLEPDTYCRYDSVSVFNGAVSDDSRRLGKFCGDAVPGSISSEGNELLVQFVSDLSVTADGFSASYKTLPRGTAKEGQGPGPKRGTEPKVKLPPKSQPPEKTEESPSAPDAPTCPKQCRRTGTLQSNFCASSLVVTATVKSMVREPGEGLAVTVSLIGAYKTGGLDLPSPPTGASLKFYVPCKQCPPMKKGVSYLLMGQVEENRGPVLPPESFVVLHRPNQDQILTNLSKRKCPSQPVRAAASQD
Kind of experiment: SPR competition: PCPE-1 (5 nM) co-injected with the mix on immobilized Mini III; mix of VHH-I5 and VHH-H4, 5 nM PCPE-1. How it is done: (§1) Surface plasmon resonance (SPR) experiments were carried out on a Biacore T200 (Cytiva). The ligand proteins, in solution in 10 mM HEPES pH 7.4 buffer for PCPE-1 or 10 mM sodium acetate pH 4.5 buffer for mini-procollagen III and streptavidin, are immobilized on CM5 chips by amine coupling. Analytes are diluted in running buffer (10 mM HEPES pH 7.4, 0.15 M NaCl, 5 mM CaCl₂), 0.05% P20) and injected at a flow rate of 30 or 50 μL/min. Competition, epitope binning and kinetics experiments were all carried out at 25° C. Regeneration was achieved by successive injection of 2 M guanidine chloride and 0.5 M EDTA for 30 sec. Sensorgrams were analyzed with Biacore T200 Evaluation v3.2.1 (Cytiva), using the most suitable models. IC50 was determined by non-linear regression using GraphPad Prism (v8.2.1).
What is more, their antagonistic effects are additive, and co-injection of a mixture of VHH-I5 and VHH-H4 with PCPE-1 virtually eliminates its interaction with Mini III.

Experiment [2] addresses T1, PCPE-1 (Procollagen C-proteinase …). The experiment can be described thus: SPR competition: PCPE-1 (5 nM) co-injected with D1 (0-200 nM) over immobilized mini-procollagen III; blocked ligand: Mini III. How it is done: FIG. 4B: Inhibition of PCPE-1/mini-procollagen III interaction in the presence of D1: the interaction of PCPE-1 (5 nM) with immobilized mini-procollagen III is measured and compared with the interaction obtained when PCPE-1 (5 nM) is co-injected with increasing amounts (0-200 nM) of D1. The % residual PCPE-1 uptake is plotted as a function of D1 concentration.
as §1

The target is the same in experiment [3]. Kind of experiment: SPR, increasing concentrations of D1 (0-250 nM) on immobilized PCPE-1, Langmuir model. The procedure:
as §1
(§2) 21, produced in bacteria. The interaction of diab-D1 with PCPE-1 was assessed by SPR, by injecting increasing concentrations of diab-D1 onto immobilized PCPE-1.

Experiment [4] shares this target. Kind of experiment: SPR competition: PCPE-1 (5 nM) co-injected with D1 (0-200 nM) on immobilized Mini III. How it is done:
as §1
Similarly, the addition of diab-D1 completely blocks the stimulation of CPIII-Long cleavage by PCPE-1 (FIG. 4C).

For experiment [5] the target is unchanged. The experiment can be described thus: SPR, D1 (0-250 nM) injected over immobilized PCPE-1, 1:1 binding model (Langmuir). The procedure:
as §1, §2
For orientation: In SPR one partner is held on a chip, and binding of the other changes the refractive index at the surface.

B1: mix of VHH-I5 and VHH-H4 (other)
VHH 1: MAQVQLVESGGGLVQPGGFLRLLCTASGNIFSSNTMGWYRRAPGKQREWVASISKGGSTNYADSVKDRFTISRSITKNTVYLQMVNLKPEDTAVYYCNPVPDSDNYASGQGTQVTVSS
VHH 2: MAEVQLQASGGGFVQPGGSLRLSCAASGFTSEISNMGWFRQAPGKEREFVSAISGTHTTQTYYADSVKGRFTISRDNSKNTVYLQMNSLRAEDTATYYCAAEQDMSDLWLGSYWGQGTQVTVSS
notes: Not one molecule: two separate nanobodies added together; the two chains are not linked; also called mixture of VHH-I5 and VHH-H4; VHH-I5 and VHH-H4 co-injected; not shown: C-terminal 6-His tag
With B1, the IC50 in experiment [1] was approximately 20 nM.

B2: bivalent nanobody VHH-H4-GS8-VHH-I5 (D1) (other)
chain: MAEVQLQASGGGFVQPGGSLRLSCAASGFTSEISNMGWFRQAPGKEREFVSAISGTHTTQTYYADSVKGRFTISRDNSKNTVYLQMNSLRAEDTATYYCAAEQDMSDLWLGSYWGQGTQVTVSSAAAGSGSGSGSGSGSGGSQVQLVESGGGLVQPGGFLRLLCTASGNIFSSNTMGWYRRAPGKQREWVASISKGGSTNYADSVKDRFTISRSITKNTVYLQMVNLKPEDTAVYYCNPVPDSDNYASGQGTQVTVSS
notes: Single polypeptide of two VHHs (H4, linker, I5), biparatopic for PCPE-1 (CUB1 and CUB2); produced in bacteria; also called diab-D1; diabody D1; not shown: C-terminal tag of the pET29b(+) construct (6-His for the synthetic nanobodies)
With B2, in experiment [2], the “IC50 (read off the curve)” value was approximately 3 nM. In addition, in experiment [3], the Kd stood at 0.32 nM. Besides, in experiment [4], the IC50 was approximately 3.5 nM. In experiment [5], the koff was 0.000515 s⁻¹ and the kon came out at 1.6e+06 M⁻¹ s⁻¹.

Broadly, the IC50 is the point on the concentration scale where inhibition reaches its midpoint. In general, Kd refers to the concentration at which binding is half-saturated. The koff is a measure of how fast the partners let go of each other. In general, kon refers to a measure of how fast the partners come together.

The values above are taken from patent US20250206813A1 (NVH MEDICINAL, published 2025).
